Assay results from patent US20020127539A1, “Assays for identifying receptors having alterations in signaling” (priority 2000, published 2002).

Key:
[1] = target: wild-type rat mu opioid receptor (rat); assay: cell-based or functional assay
[2] = target: Asn150Ala mutant rat mu opioid receptor (rat); assay: cell-based or functional assay

With “[D-Ala2-MePhe4, Gly-ol5]enkephalin (peptide)” the Average Ligand Stimulated Activity (Light Emission), SRE-Luc + Gq5i luciferase reporter in HEK293 cells (light emission) [1] was 87500 and the Average Ligand Stimulated Activity (Light Emission), SRE-Luc + Gq5i luciferase reporter in HEK293 cells (light emission) [2] was 87000.
